In publication PMC9143606, “Reactivity of a Recombinant Esterase from Thermus thermophilus HB27 in Aqueous and Organic Media” (Microorganisms, 2022):

Tests used:
Experiment in all cases: purified protein
Type in all cases: biochemical, Thermus thermophilus
Conditions in all cases: pH 7.5, 47.5 °C, 10% (v/v) isopropanol, enzyme prediluted in 50 mM phosphate
purified protein [1] = substrate: CCCCCCCC(=O)Oc1ccc([N+](=O)[O-])cc1
purified protein [2] = substrate: CCCCCCCCCC(=O)Oc1ccc([N+](=O)[O-])cc1
purified protein [3] = substrate: CCCCCCCCCCCCCC(=O)Oc1ccc([N+](=O)[O-])cc1
purified protein [4] = substrate: CCCCCCCCCCCC(=O)Oc1ccc([N+](=O)[O-])cc1

B1: KLEST-3S esterase (E34Tt, N-terminally truncated ∆N16 variant) (Thermus thermophilus HB27) (protein)
chain: QGLEAFWKAVEVPGGVCADGSPYRFYVSPGDPRKVVVDFQGGGACWDQATCGPESRTYRKRVDVQELYLAQGIYNRMSVANPFFGWTHVFVPYCTGDLHVGRATVDYGGFKVHHQGARNAQAALEYVFRNHTNPERVFVTGCSAGAYGAVLWADKILATYKNAQIAVCGDAGVGVVTEDFPGFTAWNPRLPELPGLSSPPKVSEIYRALAQAYPKAVLAQYTTLLDGTQIYFYALMKKEAAPSEATAREWAVAAERAVGFPASEANYTYYLAPGSQHCILPRPELYTLKVGEVSFLDWLRALAEGRTPPRVRP
notes: ∆N16 (putative secretion signal removed; printed cleavage site between residues 16 and 17); secreted by Kluyveromyces lactis NRRL-Y1140; cell-free medium concentrated by ultrafiltration, partially purified, essentially free of contaminant proteins
Km (purified protein [1]): 130 ± 30 µM | kcat/Km (purified protein [1]): 3.95e+07 M⁻¹ s⁻¹ | Km (purified protein [2]): 90 ± 10 µM | kcat/Km (purified protein [2]): 4.59e+07 M⁻¹ s⁻¹ | Km (purified protein [3]): 190 ± 40 µM | kcat/Km (purified protein [3]): 322000 M⁻¹ s⁻¹ | Km (purified protein [4]): 140 ± 30 µM | kcat/Km (purified protein [4]): 2.34e+07 M⁻¹ s⁻¹
